Data reported in US20040014638A1 (RIGEL PHARMACEUTICALS, published 2004).
Ends that are not written are not given here.

Experiments:
human CLLD8 protein [1] = molecular target: T1, human CLLD8 protein (human, UniProt Q96T68 1-719, limits assumed); assay: cell-based or functional assay
T1 sequence: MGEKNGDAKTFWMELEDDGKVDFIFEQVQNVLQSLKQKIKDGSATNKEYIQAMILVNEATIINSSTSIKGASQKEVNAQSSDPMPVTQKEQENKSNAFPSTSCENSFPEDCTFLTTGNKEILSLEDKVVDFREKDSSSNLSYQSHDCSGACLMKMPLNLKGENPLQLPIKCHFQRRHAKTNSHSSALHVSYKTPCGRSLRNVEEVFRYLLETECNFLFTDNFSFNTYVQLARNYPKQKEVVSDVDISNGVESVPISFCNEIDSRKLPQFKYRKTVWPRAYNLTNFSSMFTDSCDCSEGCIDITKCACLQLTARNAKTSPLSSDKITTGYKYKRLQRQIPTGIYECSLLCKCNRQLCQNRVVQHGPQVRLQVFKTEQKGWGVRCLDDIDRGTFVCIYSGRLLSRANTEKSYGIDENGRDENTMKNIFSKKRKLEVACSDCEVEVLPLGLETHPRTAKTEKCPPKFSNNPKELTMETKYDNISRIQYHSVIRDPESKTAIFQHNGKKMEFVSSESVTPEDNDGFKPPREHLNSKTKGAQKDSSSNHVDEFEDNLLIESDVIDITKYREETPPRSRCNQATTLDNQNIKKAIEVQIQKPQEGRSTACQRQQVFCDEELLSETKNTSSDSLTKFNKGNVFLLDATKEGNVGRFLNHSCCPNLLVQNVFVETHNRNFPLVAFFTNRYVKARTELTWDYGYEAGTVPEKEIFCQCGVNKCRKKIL

human CLLD8 protein [2] = molecular target: T1, human CLLD8 protein; assay: cell-based or functional assay; remark: listed apart in the source

AMHGHHGWPWGMEQGCTPLG (also: expressed as BFP-peptide fusion via alpha-helical linker, bait in pGBKT7) [peptide CL02A3 wt]
reporter ratio (GFP under germline ε promoter, A5T4 reporter line) (human CLLD8 protein [1]): 1.62
endogenous ε inhibition ratio (TAQMAN quantitative PCR of ε transcription product, +IL-4/+Dox to +IL-4/-Dox) (human CLLD8 protein [2]): 2.82
reporter ratio (original clone screen, +IL-4/+Dox over +IL-4/-Dox GFP fluorescence) (human CLLD8 protein [2]): 1.55

AMHGHHGWPWGMEQGCTPAA [peptide CL02A3LG]
reporter ratio (GFP under germline ε promoter, A5T4 reporter line) (human CLLD8 protein [1]): 1.99

RAHGHHGWPWGMEQGCTPLG [peptide CL02A3AM]
reporter ratio (GFP under germline ε promoter, A5T4 reporter line) (human CLLD8 protein [1]): 1.03

AMHGHHAAPWGMEQGCTPLG [peptide CL02A3GW]
reporter ratio (GFP under germline ε promoter, A5T4 reporter line) (human CLLD8 protein [1]): 1.16
